Assays:
[1] = target: T1, recombinant human or murine heat shock protein 70 (hsp70) (human or murine); assay: binding inhibition assay (Hill plot) against labeled reference hybrid antigen on hsp70
[2] = target: T1, recombinant human or murine heat shock …; assay: binding affinity for HSP70, binding inhibition assay

T1 sequence (A8K5I0 entry or part of it): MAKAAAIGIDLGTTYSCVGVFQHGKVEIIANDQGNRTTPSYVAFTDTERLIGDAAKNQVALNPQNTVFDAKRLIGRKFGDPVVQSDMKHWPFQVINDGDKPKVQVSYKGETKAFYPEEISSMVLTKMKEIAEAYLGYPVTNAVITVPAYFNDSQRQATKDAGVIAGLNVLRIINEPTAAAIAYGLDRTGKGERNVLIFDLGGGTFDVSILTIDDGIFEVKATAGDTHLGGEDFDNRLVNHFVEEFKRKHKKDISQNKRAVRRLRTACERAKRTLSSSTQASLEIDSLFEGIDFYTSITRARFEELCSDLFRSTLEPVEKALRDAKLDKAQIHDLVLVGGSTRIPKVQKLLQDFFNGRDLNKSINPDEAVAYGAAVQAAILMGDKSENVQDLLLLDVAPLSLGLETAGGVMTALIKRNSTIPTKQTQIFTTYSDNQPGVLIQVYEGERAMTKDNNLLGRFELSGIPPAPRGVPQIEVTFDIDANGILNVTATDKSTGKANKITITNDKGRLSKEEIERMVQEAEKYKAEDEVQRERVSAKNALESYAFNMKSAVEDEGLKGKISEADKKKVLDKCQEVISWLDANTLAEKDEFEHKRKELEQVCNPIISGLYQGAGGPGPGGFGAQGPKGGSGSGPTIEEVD

| Binder | Kd [1] [nM] | Kd [2] [nM] |
| --- | --- | --- |
| NLLRLTGWGSGSIINFEKL | 1600 | 1600 |
| NLLRLTGWFFRKSIINFEKL | 2200 | 2200 |
| NLLRLTGWRKSIINFEKL | 800 | 800 |
| NLLRLTGWAKVLSIINFEKL |  | 2000 |
| NLLRLTGWQLKSIINFEKL |  | 400 |
| NLLRLTGWFRSIINFEKL |  | 1500 |
| SIINFEKL [SIINFEKL (ovalbumin amino acids 257-264)] | 235000 |  |
